Reference: PMC9019248
Each block holds one binder with its values, some of them ahead of it.

Target: calmodulin-Sepharose, P0DP23
Test: pull-down
Details: remark: other sources report otherwise

percent reduction of binding with EGTA against Ca2+: 70.9%
B1: purified recombinant human LATS1 (active kinase), O95835 1-1130 (enzyme)
chain: MKRSEKPEGYRQMRPKTFPASNYTVSSRQMLQEIRESLRNLSKPSDAAKAEHNMSKMSTEDPRQVRNPPKFGTHHKALQEIRNSLLPFANETNSSRSTSEVNPQMLQDLQAAGFDEDMVIQALQKTNNRSIEAAIEFISKMSYQDPRREQMAAAAARPINASMKPGNVQQSVNRKQSWKGSKESLVPQRHGPPLGESVAYHSESPNSQTDVGRPLSGSGISAFVQAHPSNGQRVNPPPPPQVRSVTPPPPPRGQTPPPRGTTPPPPSWEPNSQTKRYSGNMEYVISRISPVPPGAWQEGYPPPPLNTSPMNPPNQGQRGISSVPVGRQPIIMQSSSKFNFPSGRPGMQNGTGQTDFMIHQNVVPAGTVNRQPPPPYPLTAANGQSPSALQTGGSAAPSSYTNGSIPQSMMVPNRNSHNMELYNISVPGLQTNWPQSSSAPAQSSPSSGHEIPTWQPNIPVRSNSFNNPLGNRASHSANSQPSATTVTAITPAPIQQPVKSMRVLKPELQTALAPTHPSWIPQPIQTVQPSPFPEGTASNVTVMPPVAEAPNYQGPPPPYPKHLLHQNPSVPPYESISKPSKEDQPSLPKEDESEKSYENVDSGDKEKKQITTSPITVRKNKKDEERRESRIQSYSPQAFKFFMEQHVENVLKSHQQRLHRKKQLENEMMRVGLSQDAQDQMRKMLCQKESNYIRLKRAKMDKSMFVKIKTLGIGAFGEVCLARKVDTKALYATKTLRKKDVLLRNQVAHVKAERDILAEADNEWVVRLYYSFQDKDNLYFVMDYIPGGDMMSLLIRMGIFPESLARFYIAELTCAVESVHKMGFIHRDIKPDNILIDRDGHIKLTDFGLCTGFRWTHDSKYYQSGDHPRQDSMDFSNEWGDPSSCRCGDRLKPLERRAARQHQRCLAHSLVGTPNYIAPEVLLRTGYTQLCDWWSVGVILFEMLVGQPPFLAQTPLETQMKVINWQTSLHIPPQAKLSPEASDLIIKLCRGPEDRLGKNGADEIKAHPFFKTIDFSSDLRQQSASYIPKITHPTDTSNFDPVDPDKLWSDDNEEENVNDTLNGWYKNGKHPEHAFYEFTFRRFFDDNGYPYNYPKPIEYEYINSQGSEQQSDEDDQNTGSEIKNRDLVYV

fold more bound with Ca2+ than with EGTA: 11 fold
B2: large tumor suppressor 1 kinase (endogenous, HEK293 cells), O95835 1-1130 (enzyme)
chain: B1 chain
